Experimental data reported in patent publication US20160031957A1 (UNITED STATES OF AMERICA AS REPRESENTED BY THE SECRETARY …, published 2016).

Legend:
Test in all cases: interaction in ABC DLBCL cells expressing the RNF31 isoform; method not detailed
[1] = target: T1, wild type RNF31 expressed in ABC DLBCL cells (UniProt Q96EP0 1-1072)
T1 sequence (looked up): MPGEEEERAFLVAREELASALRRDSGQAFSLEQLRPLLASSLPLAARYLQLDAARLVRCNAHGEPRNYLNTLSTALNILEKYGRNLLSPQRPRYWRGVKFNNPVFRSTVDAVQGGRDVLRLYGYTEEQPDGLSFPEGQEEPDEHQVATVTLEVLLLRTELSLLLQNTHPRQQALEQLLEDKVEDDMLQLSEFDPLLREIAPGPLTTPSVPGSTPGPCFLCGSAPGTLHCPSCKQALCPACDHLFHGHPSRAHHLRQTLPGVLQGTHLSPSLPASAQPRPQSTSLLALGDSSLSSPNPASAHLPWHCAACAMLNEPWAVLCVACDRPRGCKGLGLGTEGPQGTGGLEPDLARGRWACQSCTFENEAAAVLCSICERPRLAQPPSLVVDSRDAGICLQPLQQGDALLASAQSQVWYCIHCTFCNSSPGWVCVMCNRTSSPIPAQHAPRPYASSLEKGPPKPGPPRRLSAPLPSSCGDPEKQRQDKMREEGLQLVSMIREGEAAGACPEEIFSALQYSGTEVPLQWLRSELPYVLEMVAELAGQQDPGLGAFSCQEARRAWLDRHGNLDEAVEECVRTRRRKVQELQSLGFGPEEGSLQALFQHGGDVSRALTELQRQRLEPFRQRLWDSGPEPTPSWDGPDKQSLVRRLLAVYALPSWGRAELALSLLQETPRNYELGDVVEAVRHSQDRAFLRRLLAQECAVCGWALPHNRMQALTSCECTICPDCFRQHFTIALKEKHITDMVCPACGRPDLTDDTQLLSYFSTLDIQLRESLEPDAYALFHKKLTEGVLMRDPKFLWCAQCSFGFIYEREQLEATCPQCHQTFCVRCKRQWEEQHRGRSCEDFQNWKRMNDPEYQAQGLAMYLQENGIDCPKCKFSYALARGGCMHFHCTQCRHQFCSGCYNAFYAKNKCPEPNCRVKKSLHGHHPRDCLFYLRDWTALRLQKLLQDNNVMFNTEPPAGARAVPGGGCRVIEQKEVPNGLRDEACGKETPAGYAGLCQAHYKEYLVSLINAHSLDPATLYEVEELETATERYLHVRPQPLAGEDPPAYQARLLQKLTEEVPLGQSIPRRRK

[2] = target: T2, RNF31 Q584H mutant expressed in ABC DLBCL cells (UniProt Q96EP0 1-1072)
T2 construct: Expressed in ABC DLBCL cells; also called RNF31 mutant
T2 sequence (looked up): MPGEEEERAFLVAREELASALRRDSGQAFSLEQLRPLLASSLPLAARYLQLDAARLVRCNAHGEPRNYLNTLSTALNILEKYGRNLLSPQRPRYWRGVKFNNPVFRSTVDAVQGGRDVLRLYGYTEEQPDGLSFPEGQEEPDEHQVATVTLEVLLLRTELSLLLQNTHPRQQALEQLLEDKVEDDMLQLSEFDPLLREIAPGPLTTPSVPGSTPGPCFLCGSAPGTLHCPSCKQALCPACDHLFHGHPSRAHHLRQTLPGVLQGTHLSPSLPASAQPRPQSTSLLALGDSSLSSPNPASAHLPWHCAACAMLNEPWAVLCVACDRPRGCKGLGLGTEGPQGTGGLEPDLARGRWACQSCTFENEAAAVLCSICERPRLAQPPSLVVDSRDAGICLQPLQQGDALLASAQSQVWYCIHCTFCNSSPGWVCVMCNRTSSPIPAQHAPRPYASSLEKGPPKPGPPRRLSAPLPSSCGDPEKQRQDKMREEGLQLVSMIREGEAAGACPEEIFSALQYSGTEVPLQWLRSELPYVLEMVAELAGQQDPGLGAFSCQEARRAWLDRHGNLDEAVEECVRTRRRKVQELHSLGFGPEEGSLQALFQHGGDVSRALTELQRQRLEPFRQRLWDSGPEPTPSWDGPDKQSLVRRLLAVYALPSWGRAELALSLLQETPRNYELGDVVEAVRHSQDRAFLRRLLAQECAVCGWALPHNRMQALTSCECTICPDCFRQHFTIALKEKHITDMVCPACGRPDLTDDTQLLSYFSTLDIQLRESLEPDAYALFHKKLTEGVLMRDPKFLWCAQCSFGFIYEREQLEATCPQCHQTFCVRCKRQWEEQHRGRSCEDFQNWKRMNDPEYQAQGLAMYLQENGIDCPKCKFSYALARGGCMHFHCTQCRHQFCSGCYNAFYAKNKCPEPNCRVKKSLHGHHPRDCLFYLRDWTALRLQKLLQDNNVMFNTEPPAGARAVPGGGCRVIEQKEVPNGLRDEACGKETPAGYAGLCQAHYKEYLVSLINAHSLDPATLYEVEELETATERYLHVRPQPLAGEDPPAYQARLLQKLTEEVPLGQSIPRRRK

[3] = target: T3, RNF31 Q622L mutant expressed in ABC DLBCL cells (UniProt Q96EP0 1-1072)
T3 construct: Expressed in ABC DLBCL cells; also called RNF31 mutant
T3 sequence (looked up): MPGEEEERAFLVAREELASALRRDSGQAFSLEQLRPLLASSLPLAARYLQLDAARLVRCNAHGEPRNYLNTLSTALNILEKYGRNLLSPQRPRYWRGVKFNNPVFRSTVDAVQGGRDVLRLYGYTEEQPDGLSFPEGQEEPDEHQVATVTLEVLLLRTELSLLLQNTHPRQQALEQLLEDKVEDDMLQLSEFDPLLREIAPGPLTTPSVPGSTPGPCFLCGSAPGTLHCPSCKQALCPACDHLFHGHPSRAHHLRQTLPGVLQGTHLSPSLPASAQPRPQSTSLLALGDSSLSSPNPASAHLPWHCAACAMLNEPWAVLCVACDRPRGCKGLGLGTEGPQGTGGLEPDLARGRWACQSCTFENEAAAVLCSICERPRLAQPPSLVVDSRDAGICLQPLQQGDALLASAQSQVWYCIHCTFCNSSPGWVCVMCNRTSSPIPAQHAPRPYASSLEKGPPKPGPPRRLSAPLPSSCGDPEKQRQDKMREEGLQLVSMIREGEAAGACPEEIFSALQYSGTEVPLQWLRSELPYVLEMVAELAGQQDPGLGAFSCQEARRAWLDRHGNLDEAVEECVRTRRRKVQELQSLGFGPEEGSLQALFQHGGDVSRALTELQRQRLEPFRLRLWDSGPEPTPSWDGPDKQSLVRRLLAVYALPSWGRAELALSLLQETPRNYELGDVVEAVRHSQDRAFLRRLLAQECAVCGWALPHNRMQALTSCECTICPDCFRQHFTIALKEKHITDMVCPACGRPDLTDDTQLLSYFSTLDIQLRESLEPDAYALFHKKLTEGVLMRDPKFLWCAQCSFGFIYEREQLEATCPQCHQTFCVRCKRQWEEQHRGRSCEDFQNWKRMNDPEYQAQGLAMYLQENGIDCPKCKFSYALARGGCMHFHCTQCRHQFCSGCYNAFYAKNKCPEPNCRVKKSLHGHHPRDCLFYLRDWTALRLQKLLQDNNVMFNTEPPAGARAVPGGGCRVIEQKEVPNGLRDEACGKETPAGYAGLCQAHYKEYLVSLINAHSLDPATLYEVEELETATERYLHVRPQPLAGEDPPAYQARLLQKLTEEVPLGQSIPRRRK

binding result [1]: binds
binding result [2]: binds
binding result [3]: binds
B1: MALT1 (enzyme, UniProt Q9UDY8 2-824, looked up)
chain: SLLGDPLQALPPSAAPTGPLLAPPAGATLNRLREPLLRRLSELLDQAPEGRGWRRLAELAGSRGRLRLSCLDLEQCSLKVLEPEGSPSLCLLKLMGEKGCTVTELSDFLQAMEHTEVLQLLSPPGIKITVNPESKAVLAGQFVKLCCRATGHPFVQYQWFKMNKEIPNGNTSELIFNAVHVKDAGFYVCRVNNNFTFEFSQWSQLDVCDIPESFQRSVDGVSESKLQICVEPTSQKLMPGSTLVLQCVAVGSPIPHYQWFKNELPLTHETKKLYMVPYVDLEHQGTYWCHVYNDRDSQDSKKVEIIIGRTDEAVECTEDELNNLGHPDNKEQTTDQPLAKDKVALLIGNMNYREHPKLKAPLVDVYELTNLLRQLDFKVVSLLDLTEYEMRNAVDEFLLLLDKGVYGLLYYAGHGYENFGNSFMVPVDAPNPYRSENCLCVQNILKLMQEKETGLNVFLLDMCRKRNDYDDTIPILDALKVTANIVFGYATCQGAEAFEIQHSGLANGIFMKFLKDRLLEDKKITVLLDEVAEDMGKCHLTKGKQALEIRSSLSEKRALTDPIQGTEYSAESLVRNLQWAKAHELPESMCLKFDCGVQIQLGFAAEFSNVMIIYTSIVYKPPEIIMCDAYVTDFPLDLDIDPKDANKGTPEETGSYLVSKDLPKHCLYTRLSSLQKLKEHLVFTVCLSYQYSGLEDTVEDKQEVNVGKPLIAKLDMHRGLGRKTCFQTCLMSNGPYQSSAATSGGAGHYHSLQDPFHGVYHSHPGNPSNVTPADSCHCSRTPDAFISSFAHHASCHFSRSNVPVETTDEIPFSFSDRLRISEK
notes: Endogenous protein in cell lysates
